Publication PMC4005638, “Interactions between the non-seed region of siRNA and RNA-binding RLC/RISC proteins, Ago and TRBP, in mammalian cells”

T1: TRBP (Homo sapiens, UniProt Q15633 1-366)
T1 sequence: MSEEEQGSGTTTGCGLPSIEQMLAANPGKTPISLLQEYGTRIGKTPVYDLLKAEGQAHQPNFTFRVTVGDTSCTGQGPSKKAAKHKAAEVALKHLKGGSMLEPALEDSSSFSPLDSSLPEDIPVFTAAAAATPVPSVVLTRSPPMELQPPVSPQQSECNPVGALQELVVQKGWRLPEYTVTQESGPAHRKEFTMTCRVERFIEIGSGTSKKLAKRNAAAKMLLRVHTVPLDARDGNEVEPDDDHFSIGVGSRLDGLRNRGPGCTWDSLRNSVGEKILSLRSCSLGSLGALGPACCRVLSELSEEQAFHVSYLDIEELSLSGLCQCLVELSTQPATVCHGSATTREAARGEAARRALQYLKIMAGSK


Assays:
TRBP = target: T1, TRBP; assay: EMSA; virtually no binding; TRBP EMSA: 20 mM Tris pH 7.5, 150 mM NaCl, 2 mM EDTA, 1 mM 2-ME, 1 mM DTT, 50 ng/ml salmon sperm DNA, RNasin, 0.5 nM siRNA, 30 min; PAZ EMSA: 1 pmol/ul PAZ, 5 fmol/ul siRNA, 20 mM Tris-HCl pH 7.5, 100 mM NaCl, 2 mM EDTA, 1 mM DTT, 5% glycerol, 50 ng/ul poly(dA-dT), RNasin, 30 min, room temperature; settings: protein: recombinant; tags: N-terminal 6xHis; label: 32P guide strand; 19 bp, 2-nt 3' overhangs
[1] = target: T2, GST-PAZ (human AGO1 PAZ domain) (Homo sapiens, UniProt Q9UL18 222-376); assay: EMSA; TRBP EMSA: 20 mM Tris pH 7.5, 150 mM NaCl, 2 mM EDTA, 1 mM 2-ME, 1 mM DTT, 50 ng/ml salmon sperm DNA, RNasin, 0.5 nM siRNA, 30 min; PAZ EMSA: 1 pmol/ul PAZ, 5 fmol/ul siRNA, 20 mM Tris-HCl pH 7.5, 100 mM NaCl, 2 mM EDTA, 1 mM DTT, 5% glycerol, 50 ng/ul poly(dA-dT), RNasin, 30 min, room temperature; settings: protein: recombinant; tags: N-terminal GST, C-terminal 6xHis; label: 32P guide strand; 19 bp, 2-nt 3' overhangs
[2] = target: T2, GST-PAZ (human AGO1 PAZ domain); assay: EMSA; strong; TRBP EMSA: 20 mM Tris pH 7.5, 150 mM NaCl, 2 mM EDTA, 1 mM 2-ME, 1 mM DTT, 50 ng/ml salmon sperm DNA, RNasin, 0.5 nM siRNA, 30 min; PAZ EMSA: 1 pmol/ul PAZ, 5 fmol/ul siRNA, 20 mM Tris-HCl pH 7.5, 100 mM NaCl, 2 mM EDTA, 1 mM DTT, 5% glycerol, 50 ng/ul poly(dA-dT), RNasin, 30 min, room temperature; settings: protein: recombinant; tags: N-terminal GST, C-terminal 6xHis; label: 32P guide strand; 19 bp, 2-nt 3' overhangs

T2 sequence (Q9UL18 222-376): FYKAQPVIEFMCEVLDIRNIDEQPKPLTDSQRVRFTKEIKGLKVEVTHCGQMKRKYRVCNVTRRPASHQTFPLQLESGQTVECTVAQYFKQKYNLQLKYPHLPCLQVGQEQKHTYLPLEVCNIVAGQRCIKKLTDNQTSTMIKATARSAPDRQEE

Binder | binding result (TRBP) | binding result [1] | binding result [2]
siLuc2-153 siDNA (dsDNA, all ribonucleotides replaced by DNA) DNA 1: TCGAAGTATTCCGCGTACGTG DNA 2: CGTACGCGGAATACTTCGATT | no binding |  | 
siLuc-36 nonmodified (dsRNA) RNA 1: UCUUCCAGCGGAUAGAAUGGC RNA 2: CAUUCUAUCCGCUGGAAGAUG |  | binds | 
siLuc-36 TCA-RNA (mixed, DNA: seed duplex and subdomain B (guide 1-8, 13-14; passenger 6-7, 12-21)) DNA 1: TCTTCCAGCGGATAGAAUGGC DNA 2: CAUUCTAUCCGCTGGAAGATG |  |  | binds
siLuc-36 siDNA (dsDNA, all ribonucleotides replaced by DNA) DNA 1: TCTTCCAGCGGATAGAATGGC DNA 2: CATTCTATCCGCTGGAAGATG | no binding | no binding | 
